Measurements: paper PMC6511868

What was measured:
[1] = target: uL23 as bait of the co-IP of Figure 1C (tag not told) (UniProt P04456); experiment: co-immunoprecipitation, western blot quantification; conditions: parent: 100
[2] = target: uS3-GFP (S. cerevisiae) (UniProt P05750); experiment: co-IP; yeast lysates; GFP-Trap_A beads (GFP-tagged baits) or IgG-Sepharose (TAP-tagged baits), 3 h at 4°C, western blot; wild type and the strains sup45-2, rat8-2, rat7ΔN shifted to 37°C for 1 h; also 0.5 mg/ml cycloheximide for 30 min; also high copy RLI1
UniProt P05750, sequence (P05750 whole entry): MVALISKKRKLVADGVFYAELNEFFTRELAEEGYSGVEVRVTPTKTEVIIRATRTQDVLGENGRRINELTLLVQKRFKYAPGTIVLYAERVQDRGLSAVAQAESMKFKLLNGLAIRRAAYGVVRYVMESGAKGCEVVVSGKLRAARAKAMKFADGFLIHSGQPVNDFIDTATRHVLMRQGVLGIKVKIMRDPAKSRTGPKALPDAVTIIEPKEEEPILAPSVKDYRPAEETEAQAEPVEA

UniProt P04456, sequence (P04456 whole entry): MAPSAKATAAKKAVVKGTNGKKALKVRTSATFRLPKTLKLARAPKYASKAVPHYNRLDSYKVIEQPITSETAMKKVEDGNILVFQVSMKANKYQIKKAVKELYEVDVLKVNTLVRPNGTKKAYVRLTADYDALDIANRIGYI

Row | percent of parent [1] [%] | co-precipitation relative to wild-type eRF1 [2] | co-precipitation relative to wild-type eRF1, with high copy RLI1 [2] [%] | Substance
1 | 46 | – | – | eukaryotic release factor 1 (eRF1) (from UniProt P12385) sup45-2
2 | – | 0.25 of wild type | > 60 | mutated eRF1 protein sup45-2 (from UniProt P12385 1-437) (natural protein)
